# Data taken from patent US20120040375A1 (NATIONAL UNIVERSITY CORPORATION HOKKAIDO UNIVERSITY, published 2012).
# How the values were obtained:
# [1] = target: T1, biotin-labeled T-47D culture supernatant (MUC1) (human, UniProt P15941 24-1097, limits assumed, biotin-labeled with Sulfo-NHS-Biotin); test: SPR, Biacore, biotin-labeled T-47D culture supernatant on sensor chip SA
# T1 construct: The whole concentrated supernatant was biotinylated and put on the chip
# Biotin-Tn(DT*R)-100 = target: T2, Biotin-Tn(DT*R)-100 (N-terminal Biotin-PEG-linker; Thr(GalNAcα) in each Asp-Thr-Arg (5 sites); C-terminal amide (NH2)); test: SPR, Biacore T100, Biotin-Tn(DT*R)-100 on sensor chip SA
# T2 construct: also called Compound No. 21; Compound 21
# T2 sequence (peptide, as listed by the source limits assumed): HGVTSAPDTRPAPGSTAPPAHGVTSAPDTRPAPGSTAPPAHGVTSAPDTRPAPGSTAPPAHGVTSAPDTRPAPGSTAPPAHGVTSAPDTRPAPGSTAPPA
# T1 sequence (P15941 24-1097 limits assumed): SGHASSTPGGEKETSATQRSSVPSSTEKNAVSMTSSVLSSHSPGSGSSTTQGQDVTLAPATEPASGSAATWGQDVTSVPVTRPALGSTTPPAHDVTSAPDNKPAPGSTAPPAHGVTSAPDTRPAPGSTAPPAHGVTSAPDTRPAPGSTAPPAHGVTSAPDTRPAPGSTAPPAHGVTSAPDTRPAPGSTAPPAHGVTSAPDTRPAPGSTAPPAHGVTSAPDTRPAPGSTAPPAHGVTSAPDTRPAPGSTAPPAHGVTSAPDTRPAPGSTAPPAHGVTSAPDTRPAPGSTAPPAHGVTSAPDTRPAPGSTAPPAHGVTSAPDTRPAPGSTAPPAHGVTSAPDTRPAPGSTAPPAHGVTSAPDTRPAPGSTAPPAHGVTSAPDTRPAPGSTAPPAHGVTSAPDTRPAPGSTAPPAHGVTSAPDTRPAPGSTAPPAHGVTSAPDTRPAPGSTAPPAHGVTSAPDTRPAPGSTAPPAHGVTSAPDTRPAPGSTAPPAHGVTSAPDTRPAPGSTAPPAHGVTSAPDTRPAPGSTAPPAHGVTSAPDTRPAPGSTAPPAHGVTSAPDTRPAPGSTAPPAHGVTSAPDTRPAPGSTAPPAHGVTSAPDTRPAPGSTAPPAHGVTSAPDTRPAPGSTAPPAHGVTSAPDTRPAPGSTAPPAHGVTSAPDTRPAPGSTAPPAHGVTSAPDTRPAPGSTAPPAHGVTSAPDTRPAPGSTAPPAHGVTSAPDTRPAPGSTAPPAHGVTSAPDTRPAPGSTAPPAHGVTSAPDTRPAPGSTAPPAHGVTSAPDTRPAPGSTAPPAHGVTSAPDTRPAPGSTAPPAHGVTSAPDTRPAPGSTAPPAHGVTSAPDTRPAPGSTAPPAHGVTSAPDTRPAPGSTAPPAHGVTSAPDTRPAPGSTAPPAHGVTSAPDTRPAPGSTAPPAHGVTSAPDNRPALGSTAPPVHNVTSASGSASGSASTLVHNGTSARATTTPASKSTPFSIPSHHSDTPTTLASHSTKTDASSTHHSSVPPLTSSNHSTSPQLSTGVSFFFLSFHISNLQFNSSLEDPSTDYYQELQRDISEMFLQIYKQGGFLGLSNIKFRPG
binder,measurement,setting,value
"PankoMab (antibody, V domains shown) VH: EVQLVESGGGLVQPGGSMRLSCVASGFPFSNYWMNWVRQAPGKGLEWVGEIRLKSNNYTTHYAESVKGRFTISRDDSKNSLYLQMNSLKTEDTAVYYCTRHYYFDYWGQGTLVTVSS VL: DIVMTQSPLSNPVTPGEPASISCRSSKSLLHSNGITYFFWYLQKPGQSPQLLIYQMSNLASGVPDRFSGSGSGTDFTLRISRVEAEDVGVYYCAQNLELPPTFGQGTKVEIKR",Kd,[1],100 nM
same,koff,[1],0.045 s⁻¹
same,kon,[1],440000 M⁻¹ s⁻¹
same,Kd,Biotin-Tn(DT*R)-100,1500 nM
same,koff,Biotin-Tn(DT*R)-100,0.19 s⁻¹
same,kon,Biotin-Tn(DT*R)-100,120000 M⁻¹ s⁻¹
